Measured values: patent US20250049972A1, “METHOD OF DETECTING PROSTATE CANCER IN A HUMAN SUBJECT USING A Cu 64 PSMA I&T INJECTION” (Curium US LLC, priority 2023, published 2025)

Legend:
[1] = set-up: species or system human; details: in vivo
Method: Safety was assessed in all patients following administration of copper Cu-64 PSMA I&T injection through collection of AE reporting, laboratory assessments, vital signs, and ECG. The Phase 2 portion assessed safety after copper Cu-64 PSMA I&T injection through collection of AEs 24 hours post-injection, lab assessments, vital signs, and ECGs.

[2] = set-up: species or system human; details: in vivo; remark: listed apart in the source
Method: Radiation dosimetry estimates for normal organs were determined for copper Cu-64 PSMA I&T based on biodistribution collected from the 12 patients enrolled in the trial. Whole-body PET/CT images acquired at 1 hour (±15 minutes), 4 hours (±30 minutes), and 24 hours (±2.0 hours) post injection were used together with blood samples collected prior to and 1, 2, 4, and 24 hours post injection and total voided urine samples collected for 0 to 1-hour and 1 to 4-hour intervals post injection.
This analysis was performed with the objective of estimation of radiation dosimetry of Cu-64 PSMA I&T based on bio-distribution determined using PET image data collected in twelve human subjects. […] The maximum deviation was 13%. Activities were normalized to 100% based on the first imaging time to prevent over or under estimation of absorbed dose.
Third, calculating Source Organ Time-Activity Bio-Kinetic Modeling using bio-distribution data for the listed organs utilizing the following Equation Three: […]
The bio-distribution data for the listed organs and remainder tissues in the study may be determined using the image quantification methodology described above. Organ and tissue data may be decay corrected to fit in a least squares sense using non-linear regression with sums of exponentials of the form shown in Equation Three.

With `O=C(O)CC[C@H](NC(=O)N[C@@H](CCCCNC(=O)CCCCCCC(=O)NCCCC[C@@H](NC(=O)[C@@H](Cc1ccccc1)NC(=O)[C@@H](Cc1ccc(O)c(I)c1)NC(=O)CC[C@H](C(=O)O)N1CCN(CC(=O)O)CCN(CC(=O)O)CCN(CC(=O)O)CC1)C(=O)O)C(=O)O)C(=O)O` [Cu-64 PSMA I&T, 64 Cu-(3S, 7S, 26R, 29R, 32R, 37R)-29-benzyl-32(4-hydroxy-3-iodobenzyl)-5, 13, 20, 28, 31, 34-hexaoxo-37-(4,7,10-tris(carboxymethyl)-1,4,7, 10-tetraazacyclododecan-1-yl)-4,6, 12, 21, 27, 30, 33-heptaazaheptatriacontane-1,3,7, 26, 37-pentacarboxylic acid, metal not drawn] the “patients who experienced at least 1 AE” value [1] was 2, the “relationship of the adverse events to study product” value [1] was “not related” and the “serious adverse events attributed to the injection” value [1] was “No serious adverse events”. The “seriousness of the adverse events” value [1] was “not serious”, the “severity of the adverse events” value [1] was “mild” and the “Normalized Number of Disintegrations, Mean, Remainder” value ([2]; human) was 6.9 h. The “Dose Estimate, Mean, Adrenals” value [2] was 0.045 mGy/MBq, the “Dose Estimate, Mean, Brain” value [2] was 0.011 mGy/MBq and the “Dose Estimate, Mean, Esophagus” value [2] was 0.020 mGy/MBq. For the same molecule, the “Dose Estimate, Mean, Eyes” value [2] was 0.010 mGy/MBq, the “Dose Estimate, Mean, Gallbladder Wall” value [2] was 0.051 mGy/MBq and the “Dose Estimate, Mean, Heart Wall” value [2] was 0.055 mGy/MBq. The “Dose Estimate, Mean, Kidneys” value [2] was 0.19 mGy/MBq, the “Dose Estimate, Mean, Lacrimal Glands” value [2] was 0.16 mGy/MBq and the “Dose Estimate, Mean, Left colon” value [2] was 0.25 mGy/MBq. The “Dose Estimate, Mean, Liver” value [2] was 0.25 mGy/MBq, the “Dose Estimate, Mean, Lungs” value [2] was 0.018 mGy/MBq and the “Dose Estimate, Mean, Osteogenic Cells” value [2] was 0.018 mGy/MBq. For the same molecule, the “Dose Estimate, Mean, Pancreas” value [2] was 0.054 mGy/MBq, the “Dose Estimate, Mean, Pituitary” value [2] was 0.037 mGy/MBq and the “Dose Estimate, Mean, Prostate” value [2] was 0.027 mGy/MBq. For the same molecule, the “Dose Estimate, Mean, Rectum” value [2] was 0.15 mGy/MBq, the “Dose Estimate, Mean, Red Marrow” value [2] was 0.023 mGy/MBq and the “Dose Estimate, Mean, Right colon” value [2] was 0.22 mGy/MBq. The “Dose Estimate, Mean, Salivary Glands” value [2] was 0.12 mGy/MBq, the “Dose Estimate, Mean, Small Intestine” value [2] was 0.067 mGy/MBq and the “Dose Estimate, Mean, Spleen” value [2] was 0.048 mGy/MBq. The “Dose Estimate, Mean, Stomach Wall” value [2] was 0.063 mGy/MBq, the “Dose Estimate, Mean, Testes” value [2] was 0.035 mGy/MBq and the “Dose Estimate, Mean, Thymus” value [2] was 0.015 mGy/MBq. The “Dose Estimate, Mean, Thyroid” value [2] was 0.015 mGy/MBq, the “Dose Estimate, Mean, Total Body” value [2] was 0.022 mGy/MBq and the “Dose Estimate, Mean, Urinary Bladder Wall” value [2] was 0.074 mGy/MBq. For the same molecule, the “Normalized Number of Disintegrations, Mean, Heart wall” value [2] was 0.17 h, the “Normalized Number of Disintegrations, Mean, Kidneys” value [2] was 0.69 h and the “Normalized Number of Disintegrations, Mean, Lacrimal Glands” value [2] was 0.0033 h. The “Normalized Number of Disintegrations, Mean, Liver” value [2] was 5.0 h, the “Normalized Number of Disintegrations, Mean, Pancreas” value [2] was 0.058 h and the “Normalized Number of Disintegrations, Mean, Pituitary” value [2] was 0.00033 h. The “Normalized Number of Disintegrations, Mean, Prostate” value [2] was 0.0047 h, the “Normalized Number of Disintegrations, Mean, Red Marrow” value [2] was 0.28 h and the “Normalized Number of Disintegrations, Mean, Salivary glands” value [2] was 0.12 h. For the same molecule, the “Normalized Number of Disintegrations, Mean, Spleen” value [2] was 0.096 h, the “Normalized Number of Disintegrations, Mean, Stomach Wall” value [2] was 0.083 h and the “Normalized Number of Disintegrations, Mean, Testes” value [2] was 0.015 h. The “Normalized Number of Disintegrations, Mean, Thyroid” value [2] was 0.0035 h and the “Normalized Number of Disintegrations, Mean, Whole Body” value [2] was 15 h.
